Patent publication US20100233154A1 (AstraZeneca / MedImmune, published 2010)
Substitutions are numbered along the chain they refer to.

T1: recombinant human heparanase (active, 8 and 50 kDa sub-units, from baculovirus-infected Hi5 cells) (human, UniProt Q9Y251 36-109; Q9Y251 158-543)
T1 construct: domain: 8 kDa sub-unit;domain: 50 kDa sub-unit; also called soluble recombinant human heparanase; recombinant Hpa1
T1 sequence (looked up) 1: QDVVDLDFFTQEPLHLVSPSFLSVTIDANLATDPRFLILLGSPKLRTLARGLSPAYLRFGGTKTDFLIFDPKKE
T1 sequence (looked up) 2: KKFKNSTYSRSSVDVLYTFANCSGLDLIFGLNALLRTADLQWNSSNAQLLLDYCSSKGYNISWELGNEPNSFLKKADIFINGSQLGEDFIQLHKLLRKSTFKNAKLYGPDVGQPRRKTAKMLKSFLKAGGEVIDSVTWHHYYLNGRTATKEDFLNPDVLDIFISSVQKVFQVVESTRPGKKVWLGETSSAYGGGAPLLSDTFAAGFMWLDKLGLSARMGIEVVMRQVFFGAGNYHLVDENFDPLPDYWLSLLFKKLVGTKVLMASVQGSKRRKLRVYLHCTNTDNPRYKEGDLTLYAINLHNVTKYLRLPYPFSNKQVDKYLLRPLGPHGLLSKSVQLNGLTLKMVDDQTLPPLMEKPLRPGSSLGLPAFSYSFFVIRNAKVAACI

T2: cynomolgus heparanase (cynomolgus, UniProt A0A2K5UQU0 87-593)
T2 construct: also called recombinant cynomolgus heparanase
T2 sequence: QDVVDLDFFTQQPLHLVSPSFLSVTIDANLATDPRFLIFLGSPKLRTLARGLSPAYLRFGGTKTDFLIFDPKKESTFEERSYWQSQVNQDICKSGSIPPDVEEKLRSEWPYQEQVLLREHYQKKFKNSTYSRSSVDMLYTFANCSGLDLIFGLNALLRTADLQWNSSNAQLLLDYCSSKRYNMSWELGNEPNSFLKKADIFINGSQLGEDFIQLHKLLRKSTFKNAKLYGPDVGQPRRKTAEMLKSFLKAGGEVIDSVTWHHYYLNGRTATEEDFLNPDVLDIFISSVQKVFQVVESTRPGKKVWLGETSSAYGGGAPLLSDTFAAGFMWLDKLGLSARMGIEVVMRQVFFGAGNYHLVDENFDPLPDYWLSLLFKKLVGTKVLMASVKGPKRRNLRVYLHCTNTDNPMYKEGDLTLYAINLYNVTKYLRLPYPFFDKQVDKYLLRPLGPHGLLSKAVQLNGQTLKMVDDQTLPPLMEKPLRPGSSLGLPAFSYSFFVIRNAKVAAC

T3: murine heparanase (murine, UniProt Q6YGZ1 28-535, limits assumed)
T3 construct: also called Mouse; recombinant murine heparanase
T3 sequence (looked up): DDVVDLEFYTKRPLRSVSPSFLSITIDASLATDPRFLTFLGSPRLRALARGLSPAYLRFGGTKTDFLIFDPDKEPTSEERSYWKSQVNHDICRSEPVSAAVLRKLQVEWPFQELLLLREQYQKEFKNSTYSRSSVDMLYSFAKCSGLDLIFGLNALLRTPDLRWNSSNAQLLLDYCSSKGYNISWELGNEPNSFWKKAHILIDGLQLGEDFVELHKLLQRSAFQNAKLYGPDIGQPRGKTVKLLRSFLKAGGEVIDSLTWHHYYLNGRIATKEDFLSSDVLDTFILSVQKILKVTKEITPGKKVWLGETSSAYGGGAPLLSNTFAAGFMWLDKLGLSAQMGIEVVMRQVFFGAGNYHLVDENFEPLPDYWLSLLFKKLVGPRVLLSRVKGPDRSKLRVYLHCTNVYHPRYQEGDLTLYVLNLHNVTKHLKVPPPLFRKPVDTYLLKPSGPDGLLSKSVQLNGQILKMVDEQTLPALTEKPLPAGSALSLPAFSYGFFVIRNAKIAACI

T4: human heparanase as used in the cross species capture ELISA (human, UniProt Q9Y251 36-543, limits assumed)
T4 construct: Captured on plates by a rabbit anti-heparanase antibody
T4 sequence (looked up): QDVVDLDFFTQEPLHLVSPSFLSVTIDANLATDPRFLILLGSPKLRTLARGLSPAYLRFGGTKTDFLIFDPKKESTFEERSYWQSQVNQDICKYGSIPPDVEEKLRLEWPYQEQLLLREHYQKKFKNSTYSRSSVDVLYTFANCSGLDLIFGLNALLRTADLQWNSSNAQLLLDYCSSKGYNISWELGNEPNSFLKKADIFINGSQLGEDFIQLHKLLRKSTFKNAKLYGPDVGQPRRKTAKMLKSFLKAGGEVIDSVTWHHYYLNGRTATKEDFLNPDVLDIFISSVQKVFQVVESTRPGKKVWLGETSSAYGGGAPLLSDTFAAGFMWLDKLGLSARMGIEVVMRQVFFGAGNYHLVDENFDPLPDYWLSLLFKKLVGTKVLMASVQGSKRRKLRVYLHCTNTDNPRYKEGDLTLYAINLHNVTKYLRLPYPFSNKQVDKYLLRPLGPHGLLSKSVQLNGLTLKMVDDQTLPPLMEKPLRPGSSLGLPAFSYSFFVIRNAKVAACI

B1: monoclonal antibody 15A11.1 (antibody, V domains shown)
VH: QVQLVQSGAEVKKPGASVKVSCKVSGDTLTELSMHWVRQTPGKGLEWMGGFDPEDGETIYAQKFQGRVTMTGDTSTDTAYMELSSLRSEDTAVYYCATEGDYGDSEEYYYYYGMDVWGQGTTVTVSS
VL: DIQMTQSPSSLSASVGDRVTITCRASQGISNYLAWYQQKPGKVPKLLIYAASTLQSGVPSRFSGSGSGTDFTLTISSLQPEDVATYYCQKYNRAPFTFGPGTKVDIK
notes: Fully human (XenoMouse) antibody; also called ATCC PTA-9490
B2: monoclonal antibody 10E9.1 (antibody, V domains shown)
VH: QVQLVQSGAEVKKPGASVKVSCKVSGYSLTELSIHWVRQAPGKGLEWMGGFDPEDGEIIFAQKFQGRVTLTEDISLDTAYMEVSSLRSEDTAVYYCATEGHDSGDYVGYYYYGLDVWGQGTTVTVSS
VL: B1 VL with G28D, S30R, Y32F, V43L, T85S, K90S, Y91H, R93S, A94V, K107R
notes: Fully human (XenoMouse) antibody; also called mAb 10E9.1; ATCC PTA-9489
B3: monoclonal antibody 15A1.2 (antibody, V domains shown)
VH: QVQLVQSGAEVKKPGASVKVSCKVSGYTLTELSMHWVRQAPGKGLEWMGGFDPEDGETIFAQKFQGRVTMTEDTSTDTAYMELSSLRSEDTAVYYCATGLRFLEWFLWGWDVWGQGTTVTVSS
VL: DIQMTQSPSSVSASVGDRVTITCRASQGISNWLAWYQQTPGKAPQLLIYGASSLQSGVPSRFSGSGSGTDFTLTISSLQPEDFATYYCQQADSFPPTFGQGTKVEIK
notes: Fully human (XenoMouse) antibody; also called ATCC PTA-9491
B4: monoclonal antibody 7B9.1 (antibody, V domains shown)
VH: QVQLVESGGGVVQPGRSLRLSCAASGFTFSSYGMHWVRQAPGKGLEWVAVIWYDGSNKYYADSVKGRFTISRDNSKNTLYLQMNSLRAEDTAVYYCAREGAPYSSSDAFDIWGQGTMVTVSS
VL: QSVLTQPPSVSGAPGQRVTISCTGSSSNIGANYDVHWYQQLPGTAPKLLIYGDNNRPSGVPDRFSGSKSGTSASLAITGLQAEDEADYYCQSYDSSLSGSVFGGGTKLTVL
notes: Fully human (XenoMouse) antibody
B5: monoclonal antibody 14H12.3 (antibody, V domains shown)
VH: QVQLVESGGGVVQPGRSLRLSCAASGFTFSSYGMHWVRQAPGKGLEWVAVIWYDGSNKDYADSVKGRFTISRDNSKNTLYLQMNSLRAEDTAVYYCAREGSTSWTDYYGMDVWGQGTTVTVSS
VL: SYELTQPPSVSVSPGQTARITCSGDALPKRYAYWYQQKSGQALVLVIYEDSKRPSGIPERFSGSSSGTMATLTISGAQVEDEADYYCYSIDSSGNHGVFGGGTKLTVL
notes: as for B4
B6: monoclonal antibody 16G1.1 (antibody, V domains shown)
VH: QVQLVESGGGVVQPGRSLRLSCAASGFTFSSYGMHWVRQAPGKGLEWVAVIWYDGSNKYYADSVKGRFTISRDNSKNTLNLQMNSLRAEDTAVYYCGRDPGTYHYYYHGMDVWGQGTTVTVSS
VL: YIVMTQSPLSLPVTPGEPASISCRSSQSLLHSNGYNFLDWYLQKPGQSPQLLIYLGSNRASGVPDRFSGSGSGTDFTLKINRVEAEDVGVYYCMQALQTPITFGQGTRLEIK
notes: as for B4
B7: monoclonal antibody 16E1.1 (antibody, V domains shown)
VH: QVQLQESGPGLVKPSQTLSLTCTVSGGSISSGGYYWSWIRQHPGKGLEWIGFIYYSGSTFYNPSLKSRITISVDTSKNQFSLKLSSVTAADTAVYYCARPYSSSWYGAFDIWGQGTMVTVSS
VL: SYELTQPPSVSVSPGRTASITCSEDKLGNKYAYWYQQKPGQSPVLVIYQDSERPSGIPERFSGSNSGNTATLTISGTQAMDEADYYCQAWDSSTVVFGGGTKLTVL
notes: as for B4

Each binder was assayed against T1, recombinant human heparanase (active, 8 …) (assay: medium resolution Biacore, antibody captured on goat anti-human antibody CM4 chip, recombinant Hpa1 at 1 nM and 10 nM, 25 C, 1:1 model with mass transport).
Method: For medium resolution Biacore™ tests, cloned and purified antibodies were used. Each of three purified antibodies (10E9.1, 15A1.2, and 15A11.1) were captured onto a high-density goat anti-human antibody surface over a CM4 Biacore™ chip. Recombinant Hpa1 was diluted to the desired concentration (1 nM and 10 nM) in 10 mM HEPES, 150 mM NaCl, 0.005% tween-20, 0.1 mg per ml BSA pH7.4 (25° C.) immediately prior to injection. Data were fit globally to a 1:1 interaction model with a term for mass transport included. The resulting KD values are summarised below in Table 4.

Row | Kd | koff | kon | Binder
1 | 56 pM | 0.000309 s⁻¹ | 3.6e+06 M⁻¹ s⁻¹ | B1
2 | 54.5 pM | 0.000112 s⁻¹ | 2.06e+06 M⁻¹ s⁻¹ | B2
3 | 56 pM | 0.000105 s⁻¹ | 1.88e+06 M⁻¹ s⁻¹ | B3

Each binder was assayed against T1, recombinant human heparanase (active, 8 …) (assay: cell-based or functional assay).

Row | Inhibition of recombinant human heparanase %, Assay 1 | Inhibition of recombinant human heparanase %, Assay 2 | Binder
4 | 63% | 54% | B4
5 | 58% | 85% | B5
6 | 44% | 53% | B6
7 | 40% | 51% | B7
8 | 75% | 87% | B1
9 | 88% | 99% | B2
10 | 81% | 91% | B3

These binders were tested against T2, cynomolgus heparanase (assay: cross species capture ELISA, heparanase captured by rabbit anti-heparanase antibody, exhaustive supernatant 1:5, anti-human IgG Fc detection).
Method: (§1) Initially, cross species binding to human, murine and cynomolgus heparanase was determined in an ELISA assay in which heparanase was captured onto plates using a rabbit anti-heparanase antibody (Raybiotech, Cat. IP-14-155). Exhaustive supernatants were added to the plates at a final dilution of 1:5 and bound antibody detected with a rabbit anti-human IgG Fc.

Row | OD, binding to heparanase (Cyno) | Binder
11 | 1.06 OD units | B4
12 | 0.95 OD units | B5
13 | 1.64 OD units | B6
14 | 1.66 OD units | B7
15 | 0.14 OD units | B1
16 | 1.4 OD units | B2

The binders below were run against T3, murine heparanase in the same assay as above.
Method: as §1

Row | OD, binding to heparanase (Mouse) | Binder
17 | 0.58 OD units | B4
18 | 0.14 OD units | B5
19 | 0.61 OD units | B6
20 | 0.63 OD units | B7
21 | 0.17 OD units | B1
22 | 0.49 OD units | B2
23 | 0.14 OD units | B3

The binders below were run against T4, human heparanase as used in the cross … in the same assay as above.
Method: as §1

Row | OD, binding to heparanase (Human) | Binder
24 | 0.68 OD units | B4
25 | 0.61 OD units | B5
26 | 1.84 OD units | B6
27 | 1.08 OD units | B7
28 | 0.21 OD units | B1
29 | 0.63 OD units | B2
30 | 0.19 OD units | B3

These binders were tested against T1, recombinant human heparanase (active, 8 …) (assay: ELISA, hybridoma supernatant on directly coated recombinant human heparanase).

Row | OD, binding to direct coated heparanase | Binder
31 | 3.78 OD units | B4
32 | 3.69 OD units | B5
33 | 3.63 OD units | B6
34 | 0.15 OD units | B7
35 | 0.07 OD units | B1
36 | 0.2 OD units | B2
37 | 0.08 OD units | B3
